Measured values reported in patent US20240132603A1 (HARBOUR BIOMED US, published 2024).
Positions count from the first letter of the chain named. Names may count otherwise. Like-named read-outs stand apart in the source and are kept apart here.

What was measured:
human CCR8 [1] = biological target: T1, human CCR8 (human, UniProt P51685 1-355); assay: FACS, CHO-K1-hCCR8 cells, Fab
T1 construct: whole, on cells; construct used for the overexpressing cell lines is not described; also called hCCR8
Description: (§1) Cells overexpressing human CCR8 were digested with pancreatin, counted and resuspended to a cell density of 1E6 cells/mL. The cell suspension was added to a 96-well V-bottom plate at 100 μL/well and centrifuged at 300 g for 5 min, and the supernatant was discarded. The anti-CCR8 antibodies provided herein was used as a primary antibody and diluted in a 5-fold gradient with an FACS buffer (DPBS containing 2% FBS) from 200 nM. The diluted primary antibody was added at 100 μL/well to resuspend the cells, and the mixture was incubated at 4° C. for 1 h. The plate was washed twice with DPBS and centrifuged at 300×g for 5 min, and the supernatant was discarded. The secondary antibody diluted in a 1:1000 ratio with an FACS buffer was added at 100 μL/well to suspend the cells, and the mixture was incubated at 4° C. for 40 min. The plate was washed twice with DPBS and centrifuged at 300×g for 5 min, and the supernatant was discarded. DPBS was added at 200 μL/well to suspend the cells, and the mixture was loaded on an FACS machine for analysis.

cynomolgus monkey CCR8 [2] = biological target: T2, cynomolgus monkey CCR8 (cynomolgus monkey, UniProt G7NYJ2 1-355); assay: FACS, CHO-K1-CynoCCR8 cells
T2 construct: whole, on cells; also called CynoCCR8
Description: as §1, with “cynomolgus monkey CCR8, CHO-K1-CynoCCR8,” for “human CCR8”

human CCR8 [3] = biological target: T1, human CCR8; assay: cell-based or functional assay
human CCR8 [4] = biological target: T1, human CCR8; assay: FACS, CHO-K1-hCCR8 cells
In short: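 CCR8-overexpressing cells were stained for 1 h at 4 °C with anti-CCR8 antibodies in a 5-fold series from 200 nM. After a 1:1000 secondary antibody for 40 min at 4 °C, binding was read by flow cytometry.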

cynomolgus monkey CCR8 [5] = biological target: T2, cynomolgus monkey CCR8; assay: FACS, CHO-K1-CynoCCR8 cells; remark: listed apart in the source
Description: as §1, with “cynomolgus monkey CCR8, CHO-K1-CynoCCR8,” for “human CCR8”

human CCR8 [6] = biological target: T1, human CCR8; assay: FACS, HEK293-hCCR8 cells
Description: as §1

human CCR8 [7] = biological target: T1, human CCR8; assay: FACS, HEK293-hCCR8 cells; remark: listed apart in the source
Description: as §1

human CCR8 [8] = biological target: T1, human CCR8; assay: FACS, CHO-K1-hCCR8 cells; remark: listed apart in the source
Description: as §1

cynomolgus monkey CCR8 [9] = biological target: T2, cynomolgus monkey CCR8; assay: FACS, CHO-K1-CynoCCR8 cells; remark: listed apart in the source
Description: as §1, with “cynomolgus monkey CCR8, CHO-K1-CynoCCR8,” for “human CCR8”

human CCR8 [10] = biological target: T1, human CCR8; assay: FACS, CHO-K1-hCCR8 cells; remark: listed apart in the source
Description: as §1

human CCR8 [11] = biological target: T1, human CCR8; assay: FACS competition on HEK293-hCCR8 cells against a biotin-labelled anti-CCR8 antibody at its EC80; the labelled antibody of this panel is not named on the sheet
Description: (§2) The antibody was conjugated with Sulfo-NHS-LC-Biotin at a molar ratio of 5:1 (1 mol antibody was added to 5 mol Sulfo-NHS-LC-Biotin) with reference to the product instructions (ThermoFisher, Cat No. A39257) and incubated on ice for 2 h. The coupled antibody was purified with a Zeba desalting column (ThermoFisher, Cat No. 89882). Cells overexpressing human CCR8, HEK293-hCCR8, were added to a V-bottom 96-well plate at a density of 1E5 cells/well and centrifuged at 300 g for 5 min, and the supernatant was discarded. The competitive antibody was serially diluted in a ratio of 1:10 from 200 nM to obtain 8 concentration points. The Biotin-antibody and the competition antibody were mixed in a 1:1 ratio on an HEK293 cell line overexpressing human CCR8 by the binding EC₈₀ concentration. The cells in the 96-well plate were resuspended and incubated at 4° C. for 1 h. The plate was washed twice with DPBS at 200 μL/well. The secondary antibody diluted in a 1:1000 ratio was added at 100 μL/well, and the mixture was incubated at 4° C. for 40 min. The plate was washed twice with DPBS at 200 μL/well. Finally, DPBS was […] at 200 μL/well to suspend the cells, and the mixture was loaded on an FACS machine for analysis.

cynomolgus monkey CCR8 [12] = biological target: T2, cynomolgus monkey CCR8; assay: FACS, CHO-K1-CynoCCR8 cells; remark: listed apart in the source
In short: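 Anti-CCR8 antibodies titrated in 5-fold steps from 200 nM onto 1E6 cells/mL CHO-K1-CynoCCR8 in DPBS/2% FBS, 1 h at 4 °C. Bound antibody detected with 1:1000 secondary antibody, 40 min at 4 °C, then flow cytometry.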

human CCR8 [13] = biological target: T1, human CCR8; assay: FACS competition on HEK293-hCCR8 cells against a biotin-labelled anti-CCR8 antibody at its EC80; the labelled antibody of this panel is not named on the sheet; remark: listed apart in the source
Description: as §2

human CCR8 [14] = biological target: T1, human CCR8; assay: FACS, Baf3-hCCR8 cells
Description: as §1

human CCR8 [15] = biological target: T1, human CCR8; assay: FACS competition on HEK293-hCCR8 cells against a biotin-labelled anti-CCR8 antibody at its EC80; the labelled antibody of this panel is not named on the sheet; remark: listed apart in the source
Description: as §2

human CCR8 [16] = biological target: T1, human CCR8; assay: as above; remark: listed apart in the source
Description: as §2

human CCR8 [17] = biological target: T1, human CCR8; assay: FACS, CHO-K1-hCCR8 cells; remark: listed apart in the source
Description: as §1

human CCR8 [18] = biological target: T1, human CCR8; assay: FACS competition on HEK293-hCCR8 cells against a biotin-labelled anti-CCR8 antibody at its EC80; the labelled antibody of this panel is not named on the sheet; remark: listed apart in the source
Description: as §2

human CCR8 [19] = biological target: T1, human CCR8; assay: cell-based or functional assay; remark: listed apart in the source

T1 sequence (P51685 whole entry): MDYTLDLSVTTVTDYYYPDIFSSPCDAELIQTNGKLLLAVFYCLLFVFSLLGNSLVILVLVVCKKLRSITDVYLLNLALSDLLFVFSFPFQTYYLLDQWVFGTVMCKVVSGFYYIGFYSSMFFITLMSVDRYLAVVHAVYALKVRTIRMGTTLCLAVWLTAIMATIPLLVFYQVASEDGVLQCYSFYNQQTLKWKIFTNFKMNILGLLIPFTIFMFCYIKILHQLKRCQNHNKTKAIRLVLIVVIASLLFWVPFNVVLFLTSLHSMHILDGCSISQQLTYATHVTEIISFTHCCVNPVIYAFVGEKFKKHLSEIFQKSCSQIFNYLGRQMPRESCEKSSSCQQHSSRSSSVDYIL
T2 sequence (G7NYJ2 entry or part of it): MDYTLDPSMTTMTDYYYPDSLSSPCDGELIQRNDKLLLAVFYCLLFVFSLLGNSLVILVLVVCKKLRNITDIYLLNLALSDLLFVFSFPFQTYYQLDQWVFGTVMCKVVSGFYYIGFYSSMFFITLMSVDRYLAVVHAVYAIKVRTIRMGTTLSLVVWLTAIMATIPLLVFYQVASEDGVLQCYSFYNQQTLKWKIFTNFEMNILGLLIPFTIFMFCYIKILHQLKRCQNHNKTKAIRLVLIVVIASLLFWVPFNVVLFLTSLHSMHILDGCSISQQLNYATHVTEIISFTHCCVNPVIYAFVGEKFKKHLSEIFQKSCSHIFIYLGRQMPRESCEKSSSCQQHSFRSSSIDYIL

B1: PR005751 (Fab, V domains shown)
VH: EVQLVESGGGLVKPGGSLRLSCAASGFTFSTYAMNWVRQAPGKGLEWVGRIRSKSNNYATYYADSVKDRFTISRDDSKSTLYLQMNSLKTEDTAVYYCVRGKEHGNYYAMDFWGQGTTVTVSS
VL: DIVMTQSPLSLPVTLGQPASISCRSSKSLLHSNAKIYLYWFQQRPGQSPRLLIYRMSNLASGVPDRFSGSGSGTDFTLKISRVEAEDVGVYYCMQHLEYPLTFGQGTKLEIKR
EC50 (human CCR8 [1]): 1.1 nM

B2: PR005787 (Fab, V domains shown)
VH: B1 VH with N57Y, H104I, N106K
VL: B1 VL
EC50 (human CCR8 [1]): 0.74 nM

B3: PR005763 (Fab, V domains shown)
VH: B1 VH with N57Y, N106K
VL: B1 VL
EC50 (human CCR8 [1]): 0.62 nM

B4: PR005754 (Fab, V domains shown)
VH: B1 VH with N57Y, H104I
VL: B1 VL
EC50 (human CCR8 [1]): 0.84 nM

B5: PR005753 (Fab, V domains shown)
VH: B1 VH with H104I
VL: B1 VL
EC50 (human CCR8 [1]): 1.19 nM

B6: PR005752 (Fab, V domains shown)
VH: B1 VH with N57Y
VL: B1 VL
EC50 (human CCR8 [1]): 0.69 nM

B7: PR004128 (antibody, human IgG1, kappa)
heavy: not shown
light: DIVMTQAAPSVPVTPGESVSISCRSSKSLLHSNGKIYLYWFLQRPGQSPQLLIYRMSNLASGVPDRFSGSGSGTAFTLRISRVEAEDVGVYYCMQHLEYPLTFGAGTKLEIKRTVAAPSVFIFPPSDEQLKSGTASVVCLLNNFYPREAKVQWKVDNALQSGNSQESVTEQDSKDSTYSLSSTLTLSKADYEKHKVYACEVTHQGLSSPVTKSFNRGEC
notes: chimeric, human IgG1 constant region; also called RP004128; PRO4128
EC50 (cynomolgus monkey CCR8 [2]): 7.39 nM
Bottom %, blocking of CCL1-stimulated calcium flux (human CCR8 [3]): 7%
IC50(nM), blocking of CCL1-stimulated calcium flux (human CCR8 [3]): 1.51 nM
EC50 (human CCR8 [4]): 0.42 nM
EC50 (cynomolgus monkey CCR8 [5]): 4.73 nM
EC50 (human CCR8 [6]): 0.87 nM
EC50 (human CCR8 [7]): 4.53 nM
EC50 (human CCR8 [8]): 0.55 nM
EC50 (cynomolgus monkey CCR8 [9]): 2.26 nM
EC50 (human CCR8 [10]): 2.54 nM
IC50 (read off the curve) (human CCR8 [11]): ~3 nM
EC50 (cynomolgus monkey CCR8 [12]): 0.83 nM
IC50 (read off the curve) (human CCR8 [13]): 1 to 2 nM
EC50 (human CCR8 [14]): 0.14 nM
IC50 (read off the curve) (human CCR8 [15]): ~2 nM
IC50 (read off the curve) (human CCR8 [16]): ~2 nM
EC50 (human CCR8 [17]): 0.91 nM
IC50 (read off the curve) (human CCR8 [18]): ~2 nM

B8: PR004131 (antibody, human IgG1, kappa)
heavy: not shown
light: B7 light with S26N, K35N, I36T
notes: chimeric, human IgG1 constant region
EC50 (cynomolgus monkey CCR8 [2]): 8.65 nM
Bottom %, blocking of CCL1-stimulated calcium flux (human CCR8 [3]): 0%
IC50(nM), blocking of CCL1-stimulated calcium flux (human CCR8 [3]): 1.67 nM
EC50 (human CCR8 [4]): 0.52 nM
EC50 (human CCR8 [6]): 0.79 nM
EC50 (human CCR8 [7]): 1.94 nM
IC50 (read off the curve) (human CCR8 [11]): ~3 nM
EC50 (cynomolgus monkey CCR8 [12]): 1.6 nM
IC50 (read off the curve) (human CCR8 [13]): 1 to 2 nM
EC50 (human CCR8 [14]): 0.2 nM
IC50 (read off the curve) (human CCR8 [15]): ~2 nM
IC50 (read off the curve) (human CCR8 [16]): ~2 nM
IC50 (read off the curve) (human CCR8 [18]): ~2 nM

B9: PR004250 (antibody, human IgG1, kappa)
heavy: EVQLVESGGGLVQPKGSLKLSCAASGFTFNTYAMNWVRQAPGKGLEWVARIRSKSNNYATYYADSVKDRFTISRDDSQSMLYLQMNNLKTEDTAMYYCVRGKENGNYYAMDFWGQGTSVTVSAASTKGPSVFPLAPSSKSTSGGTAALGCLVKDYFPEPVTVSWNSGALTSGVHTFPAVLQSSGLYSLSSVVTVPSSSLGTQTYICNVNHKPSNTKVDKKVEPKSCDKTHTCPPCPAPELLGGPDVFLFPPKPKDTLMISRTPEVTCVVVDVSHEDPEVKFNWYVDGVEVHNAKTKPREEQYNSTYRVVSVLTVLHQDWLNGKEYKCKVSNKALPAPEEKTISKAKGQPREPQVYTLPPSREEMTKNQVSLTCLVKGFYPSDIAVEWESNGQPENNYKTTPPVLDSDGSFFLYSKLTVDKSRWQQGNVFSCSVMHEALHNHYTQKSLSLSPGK
light: B7 light with K35N, I36T, I111M
notes: PR004125 with S239D and I332E (DE) in the IgG1 constant region
EC50 (cynomolgus monkey CCR8 [2]): 3.5 nM
EC50 (human CCR8 [7]): 1.66 nM
EC50, ADCC reporter gene activity (Jurkat/FcγR III-NFAT effector cells) (human CCR8 [19]): 0.04 nM

B10: PR004121 (antibody, human IgG1, kappa, V domains shown)
VH: EVQLVESGGGLVQPKGSLKLSCAASGFTFNTYAMNWVRQAPGKGLEWVARIRSKSNNYATYYADSVKDRFTISRDDSQNMLYLQMNNLKTEDTAMYYCVRGKENGNYYAMDFWGQGTSVTVSS
VL: DIVITQAAPSVPVTPGESVSISCRSSKSLLHSNGNTYLYWFLQRPGQSPQLLIYRMSNLASGVPDRFSGSGSGTAFTLRISRVEAEDVGVYYCMQHLEYPFTFGGGTKLEMKR
notes: as for B8
Bottom %, blocking of CCL1-stimulated calcium flux (human CCR8 [3]): 0%
IC50(nM), blocking of CCL1-stimulated calcium flux (human CCR8 [3]): 1.44 nM
EC50 (human CCR8 [4]): 0.41 nM
EC50 (human CCR8 [6]): 0.63 nM
EC50 (human CCR8 [7]): 0.9 nM
IC50 (read off the curve) (human CCR8 [11]): ~3 nM
IC50 (read off the curve) (human CCR8 [13]): 1 to 2 nM
EC50 (human CCR8 [14]): 0.22 nM
IC50 (read off the curve) (human CCR8 [15]): ~2 nM
IC50 (read off the curve) (human CCR8 [16]): ~2 nM
IC50 (read off the curve) (human CCR8 [18]): ~2 nM

B11: PR006275AF (antibody, human IgG1, kappa)
heavy: not shown
light: DIVMTQSPLSLPVTLGQPASISCRSSKSLLHSNAKIYLYWFQQRPGQSPRLLIYRMSNLASGVPDRFSGSGSGTDFTLKISRVEAEDVGVYYCMQHLEYPLTFGQGTKLEIKRTVAAPSVFIFPPSDEQLKSGTASVVCLLNNFYPREAKVQWKVDNALQSGNSQESVTEQDSKDSTYSLSSTLTLSKADYEKHKVYACEVTHQGLSSPVTKSFNRGEC
modifications: afucosylated (AF) Fc glycan, produced with 2-fluoro peracetylated fucose
notes: also called PR00PR006275AF; R00PR006275AF
EC50 (human CCR8 [4]): 0.4 nM
EC50 (cynomolgus monkey CCR8 [12]): 0.51 nM
EC50, ADCC reporter gene activity (Jurkat/FcγR III-NFAT effector cells) (human CCR8 [19]): 2.6 nM

B12: PR006276AF (antibody, human IgG1, kappa)
heavy: not shown
light: B11 light
modifications: afucosylated (AF) Fc glycan, produced with 2-fluoro peracetylated fucose
EC50 (human CCR8 [4]): 0.39 nM
EC50 (cynomolgus monkey CCR8 [12]): 0.5 nM
EC50, ADCC reporter gene activity (Jurkat/FcγR III-NFAT effector cells) (human CCR8 [19]): 1.66 nM
